Source: patent US20160031986A1

biological target: cynomolgus monkey DLL4 extracellular domain (cynomolgus monkey); test: binding ELISA

| EC50 | Binder |
| --- | --- |
| 0.13 nM | h1A11.2 (antibody, V domains shown) VH: EVQLVESGGGLVQPGGSLRLSCAASGFTFSNFPMAWVRQAPGKGLEWVATISSSDGTTYYRDSVKGRFTISRDNAKNSLYLQMNSLRAEDTAVYYCARGYYNSPFAYWGQGTLVTVSS VL: DIQMTQSPSSLSASVGDRVTITCRASEDIYSNLAWYQQKPGKSPKLLIFDTNNLADGVPSRFSGSGSGTDSTLTISSLQPEDFATYFCQQYNNYPPTFGQGTKLEIKR |

biological target: cynomolgus monkey DLL4 extracellular domain (cynomolgus monkey); test: Biacore SPR

| Binder | Kd | koff | kon |
| --- | --- | --- | --- |
| 1A11 rat monoclonal antibody (antibody, V domains shown) VH: EVQLVESGGGLVQPGRSMKLSCAASGFTFRNFPMAWVRQAPTRGLEWVATISSSDGTTYYRDSVKGRFTISRDNAKSTLYLQVNSLRSEDTATYYCSRGYYNSPFAYWGQGTLVTVSS VL: DIQMTQSPASLSASLGETVTIECRASEDIYSNLAWYQQKPGNSPQLLIFDTNNLADGVPSRFSGSGSGTQSSLKINSLQSEDVASYFCQQYNNYPPTFGGGTKLELKR | 8.1 nM | 0.00093 s⁻¹ | 110000 M⁻¹ s⁻¹ |
| 15D6 rat monoclonal antibody (antibody, V domains shown) VH: EVQLQQSGPELAKPGSSVKISCKASGYTFTSSYISWIKQTTGQGLEYIGYINTGSGGTDYNEKFKDKATLTVDKSSRTVFMQLSSLTPGDSAVYYCAKSILLGSTYYLDYWGQGVMVTVSS VL: DTVLTQSPALAVSLGQRVTISCKASRSLSSPMYSYIYWYQQKLGQQPRLLIYRASTLASGVPARFSGSGSGTDFTLNIDPVEADDIATYFCQQSWSDPFTFGSGTKLEIKR | 14.9 nM | 0.00083 s⁻¹ | 56000 M⁻¹ s⁻¹ |
| 14A11 rat monoclonal antibody (antibody, V domains shown) VH: EVQLQQSGPELAKPGSSVKISCKASGYTFTNSYISWIKQTTGQGLEYVGYINTGSGGADYNEKFKGKATLTVDKSSRTAFMQLSSLTPGDSAVYYCAKSILLGSTCYFDYWGQGVLVTVSS VL: NTVLTQSPALAVSLGQRVTISCKASRSVSSPMYSYIYWYQQKPGQQPKLLIYRASTLASGVPARFSGSGSGTDFTLNIDPVEADDIATYFCQQSWSDPFTFGSGTKLEIKR | 11.6 nM | 0.0012 s⁻¹ | 110000 M⁻¹ s⁻¹ |
| 14G1 rat monoclonal antibody (antibody, V domains shown) VH: EVQLQQSGAELAKPGSSVKISCKASGYTFTNYDISWIKQTNGQGLEYLGYINTGSGGIYSNEKFKGKATLTVDKSSNTAFMQLSSLTPEDTAVYYCVREGNNFDHWGQGVKVTVSS VL: DTVMTQSPASMSTSVGERVTVNCKASQSVGTIVAWFQQKPGQSPKRLIYLATYRHTGVPDRFIGSGFGRDFTLTISNVEAEDLAVYYCLQYGSRPFTFGAGTKLEIKR | 10.5 nM | 0.00041 s⁻¹ | 39000 M⁻¹ s⁻¹ |

Second part, the binder after the results:

| Kd | koff | kon | Binder |
| --- | --- | --- | --- |
| 0.4 nM | 9.8e-05 s⁻¹ | 260000 M⁻¹ s⁻¹ | 38H12 rat monoclonal antibody (antibody, V domains shown) VH: EVQLVESGGGLVQPGRSLKLSCAASGFTFSNYGMYWIRQAPTKGLQWVAFISHGGGITYYRDSVKGRFTISRDNAKSTLYLQMDSLRSEDTATYHCAALNWELGIDYWGQGVMVTVSS VL: DIQMTQSPASLSASLGETISIECRASEDIYSNLAWYQKKSGKSPQLLIYAANRLQDGVPSRFSGSGSGTQYSLKISGMQPEDEGDYFCLQGSKFPLTFGSGTKLEIKR |
| 0.03 nM | 6.3e-06 s⁻¹ | 220000 M⁻¹ s⁻¹ | 32C7 rat monoclonal antibody (antibody, V domains shown) VH: EVQLVESGGGLVQPGRSLKLSCLASGFPFSSVWMTWIRQAPGKGLEWIATITNSGASTYYSASVKGRFTISRDNVKSTLYLQMTSLGSEDTATYYCTRVGTSFDYWGQGVMVTVSS VL: DIQMTQSPASLSASLGETVTIECRASDDIYNGLAWFQQKPGKSPQLLIYDANTLHTGVPSRFSGSGSGTQFSLKINSLQSEDVASYFCQQFYDYPPYTFGAGTKLELKR |
| < 617 nM | – | 40000 M⁻¹ s⁻¹ | 37D10 rat monoclonal antibody (antibody, V domains shown) VH: AVQLVESGGGLVQPKESLKISCAASGFTFSNAAMYWVRLAPGKGLEWVARIRTKPNNYATYYAESVKGRFTISRDDSKSMVYVQMDNLKTEDTAMYYCTAAPWRDSYAHVYWGQGVMVTVSS VL: DIQMTQSPPVLSASVGDRVTLSCKASQNIHKNLDWYQQKHGDAPKLLIYYTDHLQTGVPSRFSGSGSATDYTLTISSLQPEDVATYYCYQYNGGPFTFGSGTKLEIKR |
